Biological target: the molecule itself
Test: single-molecule photobleaching and fluorescence intensity analysis

B1: K401-clip labeled with Alexa-647 (domain or fragment)
chain: not shown
modifications: Alexa-647 label (labeling efficiencies of 15% monomer and 58% monomer in two preparations)
stoichiometry N: 2

— PMC9282251 (Proceedings of the National Academy of Sciences of the …, 2022)
